According to patent US20100015126A1, “Methods of Binding of Cross-Beta Structures By Chaperones” (priority 2006, published 2010):

How the values were obtained:
[1] = target: Vitronectin precursor (Serum-spreading factor/S-protein) (human) (UniProt P04004); assay: BiP-Sepharose pull-down, RA synovial fluid sample 5B, 1 M NaCl eluate, MS; may be indirect
[2] = target: Heat shock 70 kDa protein 1L (human) (UniProt P34931); assay: as above
[3] = target: 187 kDa protein/Complement component 3 (human) (UniProt P01024); assay: as above
187 kDa protein/Complement component 3 (human), sequence (P01024 23-1663 limits assumed): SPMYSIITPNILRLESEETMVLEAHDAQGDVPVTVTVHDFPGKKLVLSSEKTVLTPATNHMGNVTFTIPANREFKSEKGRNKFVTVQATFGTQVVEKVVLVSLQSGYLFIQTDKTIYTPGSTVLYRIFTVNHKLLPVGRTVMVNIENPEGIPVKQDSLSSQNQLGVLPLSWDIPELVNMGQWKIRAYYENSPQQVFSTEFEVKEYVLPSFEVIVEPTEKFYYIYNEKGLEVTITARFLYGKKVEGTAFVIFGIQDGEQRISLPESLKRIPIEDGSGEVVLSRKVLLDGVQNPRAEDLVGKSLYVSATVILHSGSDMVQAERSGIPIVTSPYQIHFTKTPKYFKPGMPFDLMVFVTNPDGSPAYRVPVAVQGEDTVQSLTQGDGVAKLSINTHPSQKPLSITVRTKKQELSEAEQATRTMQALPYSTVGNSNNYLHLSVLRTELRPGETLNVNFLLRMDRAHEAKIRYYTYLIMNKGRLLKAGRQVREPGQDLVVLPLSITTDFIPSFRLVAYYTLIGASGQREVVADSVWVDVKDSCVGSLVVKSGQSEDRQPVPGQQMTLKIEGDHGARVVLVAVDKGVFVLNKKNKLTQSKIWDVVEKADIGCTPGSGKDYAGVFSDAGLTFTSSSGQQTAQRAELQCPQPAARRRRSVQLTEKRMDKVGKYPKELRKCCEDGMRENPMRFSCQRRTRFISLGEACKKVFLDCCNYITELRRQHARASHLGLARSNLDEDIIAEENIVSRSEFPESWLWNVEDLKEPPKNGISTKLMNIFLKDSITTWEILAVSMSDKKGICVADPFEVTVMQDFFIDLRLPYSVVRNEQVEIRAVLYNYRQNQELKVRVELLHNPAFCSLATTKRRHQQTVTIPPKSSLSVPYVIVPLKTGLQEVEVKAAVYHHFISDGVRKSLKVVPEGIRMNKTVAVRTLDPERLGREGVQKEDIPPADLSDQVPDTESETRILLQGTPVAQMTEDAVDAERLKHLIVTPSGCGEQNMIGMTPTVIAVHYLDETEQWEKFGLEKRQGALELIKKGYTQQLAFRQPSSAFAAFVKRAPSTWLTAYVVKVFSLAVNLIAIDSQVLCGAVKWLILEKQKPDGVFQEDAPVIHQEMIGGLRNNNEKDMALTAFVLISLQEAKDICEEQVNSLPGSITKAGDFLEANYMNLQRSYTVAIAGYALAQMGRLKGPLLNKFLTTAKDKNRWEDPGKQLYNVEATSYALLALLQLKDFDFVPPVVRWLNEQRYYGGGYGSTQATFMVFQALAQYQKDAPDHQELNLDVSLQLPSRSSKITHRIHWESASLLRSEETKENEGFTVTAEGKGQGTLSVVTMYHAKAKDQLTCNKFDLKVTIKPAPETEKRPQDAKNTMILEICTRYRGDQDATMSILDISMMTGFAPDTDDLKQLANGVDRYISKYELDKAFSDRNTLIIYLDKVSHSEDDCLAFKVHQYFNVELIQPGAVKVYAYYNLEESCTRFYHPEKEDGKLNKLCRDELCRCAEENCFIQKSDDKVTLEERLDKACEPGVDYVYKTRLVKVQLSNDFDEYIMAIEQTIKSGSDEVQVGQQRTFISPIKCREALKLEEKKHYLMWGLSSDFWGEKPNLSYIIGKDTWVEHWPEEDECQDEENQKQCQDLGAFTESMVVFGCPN

[4] = target: fibronectin 1 isoform 4 preproprotein (human) (UniProt P02751); assay: as above
[5] = target: Serotransferrin precursor (human) (UniProt P02787); assay: as above
[6] = target: Histidine-rich glycoprotein precursor (human) (UniProt P04196); assay: as above
Histidine-rich glycoprotein precursor (human), sequence (P04196 19-525 limits assumed): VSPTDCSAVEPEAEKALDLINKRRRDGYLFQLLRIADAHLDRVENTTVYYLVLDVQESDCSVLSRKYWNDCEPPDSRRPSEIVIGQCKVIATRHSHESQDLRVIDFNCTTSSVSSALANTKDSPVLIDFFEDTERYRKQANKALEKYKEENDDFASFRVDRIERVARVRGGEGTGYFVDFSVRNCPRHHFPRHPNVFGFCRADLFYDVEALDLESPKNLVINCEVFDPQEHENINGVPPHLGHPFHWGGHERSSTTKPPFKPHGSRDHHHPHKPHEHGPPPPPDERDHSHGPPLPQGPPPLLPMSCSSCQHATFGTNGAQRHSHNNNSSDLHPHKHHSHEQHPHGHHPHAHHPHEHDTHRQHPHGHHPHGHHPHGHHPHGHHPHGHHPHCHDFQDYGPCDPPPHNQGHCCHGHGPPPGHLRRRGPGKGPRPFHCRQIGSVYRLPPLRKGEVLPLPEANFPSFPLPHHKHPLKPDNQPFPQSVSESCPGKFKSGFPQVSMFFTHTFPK

[7] = target: 25 kDa protein/immunoglobulin lambda chain/rheumatoid factor G9 light chain (lambda V3)/IGLC1 protein (human) (UniProt P0CG04); assay: as above
[8] = target: Vitronectin precursor (Serum-spreading factor/S-protein) (human) (UniProt P04004); assay: BiP-Sepharose pull-down, RA patient III serum (B4), MS of urea eluate; may be indirect
[9] = target: Phosphatase and actin regulator 4 isoform 1/Hypothetical protein DKFZp686L07205 (human) (UniProt Q8IZ21); assay: as above
[10] = target: V1-3 protein (Fragment)/immunoglobulin lambda variable 2-11 (human) (UniProt P01706); assay: as above
[11] = target: CD5 antigen-like precursor (SP-alpha, CT-2, IgM-associated peptide)/CD5 molecule-like (human) (UniProt O43866); assay: as above
CD5 antigen-like precursor (SP-alpha, CT-2, IgM-associated peptide)/CD5 molecule-like (human), sequence (O43866 20-347 limits assumed): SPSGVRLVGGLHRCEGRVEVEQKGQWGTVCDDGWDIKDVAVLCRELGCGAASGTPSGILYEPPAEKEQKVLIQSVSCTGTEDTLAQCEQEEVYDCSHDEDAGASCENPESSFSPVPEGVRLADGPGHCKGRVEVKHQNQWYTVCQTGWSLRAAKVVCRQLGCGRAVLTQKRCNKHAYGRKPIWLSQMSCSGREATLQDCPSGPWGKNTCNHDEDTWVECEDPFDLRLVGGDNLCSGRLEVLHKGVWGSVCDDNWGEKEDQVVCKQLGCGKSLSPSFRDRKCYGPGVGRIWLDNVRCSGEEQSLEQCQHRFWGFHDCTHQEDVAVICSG

[12] = target: Complement component 4 binding protein, alpha, C4b-binding protein alpha chain precursor (C4bp) (human) (UniProt P04003); assay: as above
Complement component 4 binding protein, alpha, C4b-binding protein alpha chain precursor (C4bp) (human), sequence (P04003 49-597 limits assumed): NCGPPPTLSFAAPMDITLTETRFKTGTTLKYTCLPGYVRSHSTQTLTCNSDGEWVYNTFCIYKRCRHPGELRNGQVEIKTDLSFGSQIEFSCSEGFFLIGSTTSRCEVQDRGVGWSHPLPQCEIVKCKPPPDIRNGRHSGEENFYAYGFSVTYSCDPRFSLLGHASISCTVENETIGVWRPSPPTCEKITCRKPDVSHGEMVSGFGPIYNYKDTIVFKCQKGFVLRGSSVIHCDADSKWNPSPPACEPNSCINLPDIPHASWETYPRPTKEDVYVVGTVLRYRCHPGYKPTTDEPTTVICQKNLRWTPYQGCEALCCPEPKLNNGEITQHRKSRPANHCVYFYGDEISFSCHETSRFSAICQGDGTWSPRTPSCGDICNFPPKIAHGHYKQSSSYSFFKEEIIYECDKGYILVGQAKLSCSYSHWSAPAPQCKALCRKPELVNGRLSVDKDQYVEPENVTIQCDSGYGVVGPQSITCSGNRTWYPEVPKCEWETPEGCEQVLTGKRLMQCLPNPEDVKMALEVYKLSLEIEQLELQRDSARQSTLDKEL

[13] = target: GCN1 general control of amino-acid synthesis 1-like 1 (yeast)/GCN1-like protein 1 (HsGCN1) (human) (UniProt Q92616); assay: as above
[14] = target: 187 kDa protein/Complement component 3 (human) (UniProt P01024); assay: as above
[15] = target: Hypothetical protein DKFZp686I04196 (Fragment)/Immunoglobulin heavy constant gamma 2 (G2m marker)/Ig gamma-2 chain C region (human) [IgG part: P01859]; assay: as above
[16] = target: Ig lambda chain V-III region SH (human) (UniProt P01714); assay: as above
[17] = target: Isoform 1 of Plectin-1 (human) (UniProt Q15149); assay: as above
[18] = target: Alpha-1-antitrypsin precursor/Serpin peptidase inhibitor, clade A, member 1 (human) (UniProt P01009); assay: as above
[19] = target: Immunoglobulin lambda variable 3-25/V2-17 protein (Fragment) (human) (UniProt P01717); assay: as above
Immunoglobulin lambda variable 3-25/V2-17 protein (Fragment) (human), sequence (P01717 20-112 limits assumed): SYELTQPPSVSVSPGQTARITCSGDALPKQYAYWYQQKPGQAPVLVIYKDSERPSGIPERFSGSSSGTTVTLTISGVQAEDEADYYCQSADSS

[20] = target: Immunoglobulin J chain, Immunoglobulin J polypeptide (human) (UniProt P01591); assay: as above
[21] = target: Dapper homolog 1 (hDPR1) (human) (UniProt Q9NYF0); assay: as above
[22] = target: Hypothetical protein/Heat shock 70 kDa protein 5 (glucose-regulated protein, 78 kDa = GRP78 = BiP = HSPA5), as identified in eluates (human) (UniProt P11021); assay: BiP-Sepharose pull-down, RA synovial fluid sample 3B, 1 M NaCl eluate, MS; BiP may stem from the column
Hypothetical protein/Heat shock 70 kDa protein 5 (glucose-regulated protein, 78 kDa = GRP78 = BiP = HSPA5), as identified in eluates (human), sequence (P11021 19-654 limits assumed): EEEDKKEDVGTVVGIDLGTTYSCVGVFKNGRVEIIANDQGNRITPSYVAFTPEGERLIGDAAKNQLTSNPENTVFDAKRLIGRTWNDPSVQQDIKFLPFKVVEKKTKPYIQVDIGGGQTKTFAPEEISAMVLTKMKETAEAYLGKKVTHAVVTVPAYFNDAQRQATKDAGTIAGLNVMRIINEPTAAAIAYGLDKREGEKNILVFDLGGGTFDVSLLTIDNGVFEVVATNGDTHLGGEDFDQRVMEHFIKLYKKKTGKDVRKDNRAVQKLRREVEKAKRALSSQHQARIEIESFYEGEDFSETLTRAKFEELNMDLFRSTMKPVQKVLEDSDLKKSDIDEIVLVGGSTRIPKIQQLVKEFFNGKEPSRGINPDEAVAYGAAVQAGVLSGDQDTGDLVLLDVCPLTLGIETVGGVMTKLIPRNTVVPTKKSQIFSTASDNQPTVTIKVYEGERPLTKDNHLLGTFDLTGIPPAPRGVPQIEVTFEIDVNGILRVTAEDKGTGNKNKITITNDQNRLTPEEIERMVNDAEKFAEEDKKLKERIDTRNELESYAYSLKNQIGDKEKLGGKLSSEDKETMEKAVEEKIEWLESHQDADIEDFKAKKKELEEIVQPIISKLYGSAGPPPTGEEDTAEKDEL

[23] = target: IGHM protein, coagulation factor VII (serum prothrombin conversion accelerator) (human) (UniProt P08709); assay: BiP-Sepharose pull-down, RA synovial fluid sample 4B, 1 M NaCl eluate, MS; may be indirect
[24] = target: Isoform H17 of Myeloperoxidase precursor (human) (UniProt P05164); assay: as above
[25] = target: IGLC1 protein (immunoglobulin lambda C1)/immunoglobulin lambda chain/immunoglobulin C1 segment protein (fragment) (human) (UniProt P0CG04); assay: BiP-Sepharose pull-down, RA patient IV synovial fluid (B6), MS of urea eluate; may be indirect
IGLC1 protein (immunoglobulin lambda C1)/immunoglobulin lambda chain/immunoglobulin C1 segment protein (fragment) (human), sequence (P0CG04 whole entry, the tested form may be a part): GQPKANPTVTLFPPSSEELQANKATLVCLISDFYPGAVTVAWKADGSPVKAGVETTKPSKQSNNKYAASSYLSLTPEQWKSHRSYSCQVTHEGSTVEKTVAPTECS

[26] = target: Hypothetical protein/Heat shock 70 kDa protein 5 (glucose-regulated protein, 78 kDa = GRP78 = BiP = HSPA5), as identified in eluates (human) (UniProt P11021); assay: BiP-Sepharose pull-down, RA synovial fluid sample 4B, 1 M NaCl eluate, MS; BiP may stem from the column
[27] = target: Vitronectin precursor (Serum-spreading factor/S-protein) (human) (UniProt P04004); assay: BiP-Sepharose pull-down, RA synovial fluid sample 6B, 1 M NaCl eluate, MS; may be indirect
[28] = target: Heat shock 70 kDa protein 1L (human) (UniProt P34931); assay: as above

Vitronectin precursor (Serum-spreading factor/S-protein) (human), sequence (P04004 20-478 limits assumed): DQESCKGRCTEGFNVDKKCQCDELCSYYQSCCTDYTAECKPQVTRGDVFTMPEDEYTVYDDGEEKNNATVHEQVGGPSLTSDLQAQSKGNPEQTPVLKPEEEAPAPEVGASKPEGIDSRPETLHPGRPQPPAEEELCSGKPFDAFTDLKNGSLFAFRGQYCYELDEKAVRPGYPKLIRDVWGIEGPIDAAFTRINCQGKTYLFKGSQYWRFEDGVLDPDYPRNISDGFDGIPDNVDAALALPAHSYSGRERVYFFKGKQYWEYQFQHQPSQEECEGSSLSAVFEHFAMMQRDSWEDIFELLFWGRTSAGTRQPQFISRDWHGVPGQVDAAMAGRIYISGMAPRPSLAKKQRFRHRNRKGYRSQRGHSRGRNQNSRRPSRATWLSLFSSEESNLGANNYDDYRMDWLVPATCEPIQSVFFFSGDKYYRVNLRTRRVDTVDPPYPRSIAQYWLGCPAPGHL
Heat shock 70 kDa protein 1L (human), sequence (P34931 whole entry): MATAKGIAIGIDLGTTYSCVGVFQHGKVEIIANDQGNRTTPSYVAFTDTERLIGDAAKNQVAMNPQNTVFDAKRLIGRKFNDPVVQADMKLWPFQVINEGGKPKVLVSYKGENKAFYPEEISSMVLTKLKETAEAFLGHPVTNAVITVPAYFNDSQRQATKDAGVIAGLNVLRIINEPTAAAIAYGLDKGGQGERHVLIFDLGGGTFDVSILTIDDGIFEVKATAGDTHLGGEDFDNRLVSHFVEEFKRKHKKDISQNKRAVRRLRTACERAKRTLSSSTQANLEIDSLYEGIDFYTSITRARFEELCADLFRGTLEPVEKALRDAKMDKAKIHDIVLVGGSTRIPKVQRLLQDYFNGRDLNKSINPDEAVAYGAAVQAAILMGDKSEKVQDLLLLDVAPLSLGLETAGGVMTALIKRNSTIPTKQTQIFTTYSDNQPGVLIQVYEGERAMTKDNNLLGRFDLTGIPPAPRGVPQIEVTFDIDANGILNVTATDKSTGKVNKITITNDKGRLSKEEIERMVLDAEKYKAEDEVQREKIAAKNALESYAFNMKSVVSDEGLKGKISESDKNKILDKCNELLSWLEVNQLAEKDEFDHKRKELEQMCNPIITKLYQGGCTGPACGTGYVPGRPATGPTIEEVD

- # of unique peptides [1]: 2 peptides
- # of unique peptides [2]: 1 peptides
- # of unique peptides [3]: 1 peptides
- # of unique peptides [4]: 2 peptides
- # of unique peptides [5]: 1 peptides
- # of unique peptides [6]: 1 peptides
- # of unique peptides [7]: 1 peptides
- # of peptides [8]: 4 peptides
- # of peptides [9]: 2 peptides
- # of peptides [10]: 1 peptides
- # of peptides [11]: 1 peptides
- # of peptides [12]: 7 peptides
- # of peptides [13]: 2 peptides
- # of peptides [14]: 9 peptides
- # of peptides [15]: 14 peptides
- # of peptides [16]: 2 peptides
- # of peptides [17]: 2 peptides
- # of peptides [18]: 1 peptides
- # of peptides [19]: 10 peptides
- # of peptides [20]: 5 peptides
- # of peptides [21]: 2 peptides
- # of unique peptides [22]: 19 peptides
- # of unique peptides [23]: 1 peptides
- # of unique peptides [24]: 1 peptides
- # of peptides [25]: 1 peptides
- # of unique peptides [26]: 10 peptides
- # of unique peptides [27]: 1 peptides
- # of unique peptides [28]: 1 peptides
Substance: recombinant human BiP with C-terminal linker, FLAG-tag and His-tag (BiP-FLAG-His) (from UniProt P11021 19-654)
